Assay results published in doi:10.1101/2021.03.19.436134.
“And” between values parts separate entries of the source, which are not always exact repeats. Equal values may be shown once. Values belong to the substance of their own block, whether it stands above or below them.

How the values were obtained:
[1] = biological target: labelled, biotinylated PfArlI^C290S/T411C (Pyrococcus furiosus); experiment: single-molecule TIRF photobleaching step counting
[2] = biological target: SaArlH, ArlH of Sulfolobus acidocaldarius, His-tagged, non-phosphorylated (Sulfolobus acidocaldarius); experiment: BLI
[3] = biological target: biotinylated PfArlI, ArlI motor ATPase of Pyrococcus furiosus with AviTag, unlabelled, immobilised (Pyrococcus furiosus); experiment: single-molecule TIRF photobleaching step counting
[4] = biological target: PfArlH^S109C, single cysteine mutant of Pyrococcus furiosus ArlH labelled with Atto550 and Atto647N, non-phosphorylated (Pyrococcus furiosus); experiment: single-molecule TIRF photobleaching step counting

stoichiometry N [1]: 3 and 2 and 6
Substance: labelled, biotinylated PfArlI^C290S/T411C (enzyme)

Kd [2]: 638 nM
Substance: SaArlI, ArlI motor ATPase of Sulfolobus acidocaldarius (Strep-SaArlI) (enzyme)

stoichiometry N [3]: 1 | stoichiometry N [4]: 6 and 3
Substance: PfArlH^S109C, single cysteine mutant of Pyrococcus furiosus ArlH labelled with Atto550 and Atto647N, non-phosphorylated (natural protein)
